# Laboratory results published in IntAct's records for PubMed 23374343.
# B1: Sialic acid-binding Ig-like lectin 10 (Mus musculus), Q80ZE3 (parent)
# chain: MSLLLFLLSFLLDGPQGQMESYFLQVQRIVKAQEGLCIFVPCSFSSPEGKWLNRSPLYGYWFKGIRKPSLSFPVATNNKDKVLEWEARGRFQLLGDISKKNCSLLIKDVQWGDSTNYFFRMERGFERFSFKEEFRLQVEALTQKPDIFIPEVLEPGEPVTVVCLFSWTFNQCPAPSFSWMGDAVSFQESRPHTSNYSVLSFIPGLQHHDTELTCQLDFSRMSTQRTVRLRVAYAPRSLAISIFHDNVSVPDLHENPSHLEVQQGQSLRLLCTADSQPPATLSWVLEDQVLSWSSPVGSRTLALELPWVKAGDSGHYTCQAENRLGSQQHTLDLSVLYPPQDLRVTVSQANRTVLEILRNAISLPVLEGQSLCLVCVTYSNPPANVSWAWVTQTLIPIQSSEPGVLELPLVQREHEGEFTCAAQNPLGAQRISLSLSVHYPPQMSSPSCSWEAKGLHCNCSSRAWPAPSLRWRLGEGLLEGNSSNASFTVTFSSLGPWVNSSLSLLQELGPSLWLSCESWNTHGAQTTSVLLLPDKDSATAFSKGAVLGFGITALLALCLIVVIVKTLQKKGTQEEPSRPKLSRGSTILDYINVVPKTRSLARNWKAEPDAPSRSSPLDTHFPKPKKKQKDPHFTYPGCPDPTSSSQVPVSENNPEELHYAALNFSRLRLQETQDPQDTYSDYTEVRVH
# partner: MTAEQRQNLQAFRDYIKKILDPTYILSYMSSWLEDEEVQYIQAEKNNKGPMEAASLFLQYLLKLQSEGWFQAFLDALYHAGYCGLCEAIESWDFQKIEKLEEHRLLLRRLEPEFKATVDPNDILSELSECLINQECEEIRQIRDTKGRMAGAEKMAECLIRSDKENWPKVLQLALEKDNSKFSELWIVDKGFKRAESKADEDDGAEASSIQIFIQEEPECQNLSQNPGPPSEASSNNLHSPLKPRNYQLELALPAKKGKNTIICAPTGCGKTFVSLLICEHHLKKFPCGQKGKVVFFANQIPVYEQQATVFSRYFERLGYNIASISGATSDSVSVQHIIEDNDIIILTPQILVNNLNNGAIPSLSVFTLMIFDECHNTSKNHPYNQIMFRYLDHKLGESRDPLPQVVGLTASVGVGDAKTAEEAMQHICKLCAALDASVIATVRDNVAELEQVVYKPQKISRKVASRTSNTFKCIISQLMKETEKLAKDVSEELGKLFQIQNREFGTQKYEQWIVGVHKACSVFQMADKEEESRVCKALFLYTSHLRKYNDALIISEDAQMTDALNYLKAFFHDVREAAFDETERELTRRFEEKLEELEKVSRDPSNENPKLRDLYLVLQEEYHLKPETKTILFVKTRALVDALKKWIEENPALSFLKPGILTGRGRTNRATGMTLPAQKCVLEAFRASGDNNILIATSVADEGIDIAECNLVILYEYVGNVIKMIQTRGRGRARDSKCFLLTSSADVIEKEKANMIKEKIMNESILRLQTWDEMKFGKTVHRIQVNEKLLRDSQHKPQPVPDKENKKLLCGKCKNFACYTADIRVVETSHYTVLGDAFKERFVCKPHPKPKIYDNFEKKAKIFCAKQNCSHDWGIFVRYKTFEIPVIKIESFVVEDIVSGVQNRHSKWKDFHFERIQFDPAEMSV
# Variants of: B1
# Conditions: with rigi_mouse Rigi
row,Variant,effect of a mutation on the interaction
1,Y590F;Y635F;Y659F;Y679F,decreasing interaction strength
